Laboratory results published in patent publication US20080199879A1.

Key:
[1] = target: 15 L-β33-42 peptide+ruthenium complex-labeled polylysine-bound substance; assay: competitive electrochemiluminescence immunoassay, no competitor: labeled peptide composite bound to bead-bound 21F12
[2] = target: Aβ1-42 synthetic peptide (produced by Peptide Institute, Inc.); assay: electrochemiluminescence double antibody sandwich; 21F12 on magnetic beads, ruthenium-labeled 3D6 detection; Aβ1-42 at 1 pg/mL
[3] = target: Aβ1-42 synthetic peptide (produced by Peptide Institute, Inc.); assay: electrochemiluminescence double antibody sandwich; 21F12 on magnetic beads, ruthenium-labeled 3D6 detection; Aβ1-42 at 5 pg/mL
[4] = target: enzyme degradation product of the Aβ1-42 synthetic peptide (trypsin treated Aβ1-42 synthetic peptide); assay: electrochemiluminescence double antibody sandwich; 21F12 beads, ruthenium-labeled 3D6 detection; trypsin-treated Aβ1-42 sample
[5] = target: 15 L-β33-42 peptide+ruthenium complex-labeled polylysine-bound substance; assay: competitive electrochemiluminescence immunoassay, no competitor: labeled peptide composite (1 µg/ml) bound to bead-bound 21F12
[6] = target: Aβ1-42 synthetic peptide (produced by Peptide Institute, Inc.); assay: electrochemiluminescence double antibody sandwich; 21F12 on magnetic beads, ruthenium-labeled 3D6 detection; Aβ1-42 at 10 pg/mL
[7] = target: Aβ1-42 synthetic peptide (produced by Peptide Institute, Inc.); assay: electrochemiluminescence double antibody sandwich; 21F12 on magnetic beads, ruthenium-labeled 3D6 detection; Aβ1-42 at 25 pg/mL
[8] = target: Aβ1-42 synthetic peptide (produced by Peptide Institute, Inc.); assay: electrochemiluminescence double antibody sandwich; 21F12 on magnetic beads, ruthenium-labeled 3D6 detection; Aβ1-42 at 50 pg/mL
[9] = target: Aβ1-42 synthetic peptide (produced by Peptide Institute, Inc.); assay: competitive electrochemiluminescence immunoassay, no competitor: ruthenium-labeled 21F12 (0.1 µg/ml) bound to bead-bound Aβ1-42
[10] = target: Aβ1-42 synthetic peptide (produced by Peptide Institute, Inc.); assay: electrochemiluminescence double antibody sandwich; 21F12 on magnetic beads, ruthenium-labeled 3D6 detection; Aβ1-42 at 0.5 pg/mL
[11] = target: Aβ1-42 synthetic peptide (produced by Peptide Institute, Inc.); assay: electrochemiluminescence double antibody sandwich; 21F12 on magnetic beads, ruthenium-labeled 3D6 detection; Aβ1-42 at 100 pg/mL
[12] = target: Aβ1-42 synthetic peptide (produced by Peptide Institute, Inc.); assay: electrochemiluminescence double antibody sandwich; 21F12 beads, ruthenium-labeled 3D6 detection; untreated Aβ1-42 control sample
[13] = target: enzyme degradation product of the Aβ1-42 synthetic peptide (trypsin treated Aβ1-42 synthetic peptide); assay: electrochemiluminescence double antibody sandwich; 21F12 beads, ruthenium-labeled 3D6 detection; trypsin-treated Aβ1-42 sample against untreated control

15 L-β33-42 peptide+ruthenium complex-labeled polylysine-bound substance, sequence (peptide, as listed by the source): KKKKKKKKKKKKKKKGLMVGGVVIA

ECL value [1]: 18100
Difference from the blank (ECL value) [2]: 1370
ECL value [2]: 1840
Difference from the blank (ECL value) [3]: 10300
ECL value [3]: 10800
ECL value [4]: 1090
ECL value [5]: 17000
Difference from the blank (ECL value) [6]: 22400
ECL value [6]: 22900
Difference from the blank (ECL value) [7]: 75300
ECL value [7]: 75800
Difference from the blank (ECL value) [8]: 160000
ECL value [8]: 160000
ECL value [9]: 34400
Difference from the blank (ECL value) [10]: 614
ECL value [10]: 1080
Difference from the blank (ECL value) [11]: 345000
ECL value [11]: 345000
ECL value [12]: 12800
% (relative ratio of measured value, control sample = 100%) [13]: 9%
Substance: 21F12 mouse monoclonal antibody (produced by Innogenetics Inc.)
